Assay results from patent US20220177594A1.
Numbering of substitutions follows the chain as printed. Values belong to the binder of their own block, whether it stands above or below them.

Columns and labels:
[1] = biological target: Canine_OSMR_hlgG1_Fc (canine); test: SPR Biacore, OSMR on chip
[2] = biological target: Feline_OSMR_hlgG1_Fc (feline); test: SPR Biacore, OSMR on chip
[3] = biological target: Canine_OSMR_hlgG1_Fc (canine); test: SPR Biacore
[4] = biological target: Feline_OSMR_hlgG1_Fc (feline); test: SPR Biacore
[5] = biological target: Feline_OSMR_hlgG1_Fc (feline); test: indirect ELISA, fOSMR coated; OD ratio to antibody expression control

Feline_OSMR_hlgG1_Fc (feline), sequence (chain, as listed by the source limits assumed, form in doubt): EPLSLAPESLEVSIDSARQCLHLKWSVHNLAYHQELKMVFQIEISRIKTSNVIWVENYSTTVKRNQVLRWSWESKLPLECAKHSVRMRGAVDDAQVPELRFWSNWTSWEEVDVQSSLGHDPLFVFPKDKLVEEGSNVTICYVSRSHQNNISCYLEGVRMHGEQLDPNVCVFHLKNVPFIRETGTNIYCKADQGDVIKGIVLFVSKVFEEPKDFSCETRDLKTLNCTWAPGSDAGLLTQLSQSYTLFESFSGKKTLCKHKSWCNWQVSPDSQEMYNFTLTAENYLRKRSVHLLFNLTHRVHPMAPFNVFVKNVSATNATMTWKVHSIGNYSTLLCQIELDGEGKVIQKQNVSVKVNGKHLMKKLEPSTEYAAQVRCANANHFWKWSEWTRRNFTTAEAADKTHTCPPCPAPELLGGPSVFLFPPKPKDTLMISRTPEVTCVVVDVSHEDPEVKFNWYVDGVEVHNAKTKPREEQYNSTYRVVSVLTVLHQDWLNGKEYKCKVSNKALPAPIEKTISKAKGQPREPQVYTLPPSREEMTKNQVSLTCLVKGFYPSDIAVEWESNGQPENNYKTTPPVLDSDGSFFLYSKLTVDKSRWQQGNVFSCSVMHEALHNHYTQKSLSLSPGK
Canine_OSMR_hlgG1_Fc (canine), sequence (chain, as listed by the source limits assumed, form in doubt): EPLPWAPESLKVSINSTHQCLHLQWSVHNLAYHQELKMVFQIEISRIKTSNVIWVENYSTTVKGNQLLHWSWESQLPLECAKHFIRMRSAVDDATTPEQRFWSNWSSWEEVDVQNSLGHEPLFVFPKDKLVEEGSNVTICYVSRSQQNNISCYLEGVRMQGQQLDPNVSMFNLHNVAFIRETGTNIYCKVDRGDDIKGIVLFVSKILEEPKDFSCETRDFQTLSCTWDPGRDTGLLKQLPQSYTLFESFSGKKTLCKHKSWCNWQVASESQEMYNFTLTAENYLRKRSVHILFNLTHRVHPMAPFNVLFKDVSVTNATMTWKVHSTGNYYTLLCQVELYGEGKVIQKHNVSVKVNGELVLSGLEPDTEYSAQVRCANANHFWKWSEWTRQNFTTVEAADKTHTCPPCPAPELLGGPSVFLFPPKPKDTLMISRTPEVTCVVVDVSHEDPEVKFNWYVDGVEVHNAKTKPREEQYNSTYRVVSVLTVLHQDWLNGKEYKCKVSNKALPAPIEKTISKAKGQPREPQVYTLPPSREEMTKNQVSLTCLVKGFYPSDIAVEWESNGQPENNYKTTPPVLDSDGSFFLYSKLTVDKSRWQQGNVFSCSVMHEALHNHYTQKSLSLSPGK

B1: Mu_14C04 (antibody, V domains shown)
VH: EVQLQESGAELVKPGASVKISCKASGYAFSNYWMNWMKQRPGKGLEWIGQIYPGHVNTNYNGNFKDKATLTADKSSSTAYMQLSSLTSEDSAVYFCARSADNSGFVLFAYWGQGTLVTVS
VL: DIVLTQSPASLAVSLGQRATISCRASKSVSTSGYSYLHWYQQKPGQPPKLLIFLASNLESGVPARFSGSGSGTDFTLNIHPVEEEDAATYYCQHSRELPLTFGAGTKLELK
Kd [1]: 14.2 nM

B2: Mu_09E09 (antibody, V domains shown)
VH: DVKLVESGEGLVKPGGSLKLSCAASGFTFSSYAMSWVRQTPEKRLEWVAYISSGGDYIYYADTVKGRFTISRDNARNTLYLQMSSLKSEDTAMYYCTRDPITGTFAYWGQGTLVTVSA
VL: DLQMTQTTSSLSASLGDRVTISCRASQDINNYLNWYQQKPDGTVKLLIYYTSTLHSGVPSRFSGSGSGTDYSLTISNLEQEDIATYFCQQGNTLPWTFGGGTKLEIK
Kd [1]: 7.87 nM
Kd [2]: 3.75 nM

B3: Mu_10F07_VL (SEQ ID NO: 41)_W96A (antibody, V domains shown)
VH: B2 VH with A49T, I58F
VL: DIQMTQTTSSLSASLGDRVTISCRASQDITNYLNWYQQKPDGTVKLLIYYTSTLHSGVPSRFSGSGSGTDFSLTISNLEQEDIATYFCQQGHMLPATFGGGTKLEIKR
Kd [3]: 40 nM
koff [3]: 8.63 s⁻¹
kon [3]: 2.16e+08 M⁻¹ s⁻¹
Kd [4]: 7.03 nM
koff [4]: 0.00158 s⁻¹
kon [4]: 225000 M⁻¹ s⁻¹
ELISA ratio [5]: 0.134 OD ratio

B4: Mu_10F07_VH (SEQ ID NO: 39)_D99A (antibody, V domains shown)
VH: B2 VH with A49T, I58F, D99A
VL: B3 VL with A96W
Kd [3]: 11.2 nM
koff [3]: 0.000576 s⁻¹
kon [3]: 51600 M⁻¹ s⁻¹
Kd [4]: 3.18 nM
koff [4]: 0.000704 s⁻¹
kon [4]: 221000 M⁻¹ s⁻¹
ELISA ratio [5]: 0.545 OD ratio

B6: Mu_10F07 (antibody, V domains shown)
VH: B2 VH with A49T, I58F
VL: B2 VL with L2I, N30T, Y71F, N92H, T93M
Kd [1]: 2.03 nM
Kd [2]: 1.59 nM

B12: Mu_10F07_VH (SEQ ID NO: 39)_I101A (antibody, V domains shown)
VH: B2 VH with A49T, I58F, I101A
VL: B3 VL with A96W
Kd [4]: 6.88 nM
koff [4]: 0.000701 s⁻¹
kon [4]: 102000 M⁻¹ s⁻¹
ELISA ratio [5]: 0 OD ratio

B13: Mu_02D09 (antibody, V domains shown)
VH: EVQLVESGGGLVKPGGSLTLSCAASGFTFSDYGMHWLRQAPEKGLEWVAYISSGSRAVFFADTVKGRFTISRDNAKNTLFLQMTSLRSDDTAMYYCARDRYDGRGFAYWGQGTLVTVSA
VL: DIVLTQSPATLSVTPGDSVSLSCRASQSISNNLHWYQQTSHESPRLLITYASQSISGIPSRFSGSGSGTDFTLSINSVETEDFGMYFCQQSNSWPLTFGAGTKLELK
Kd [2]: 8.96 nM

B14: Mu_02D09_VL (SEQ ID NO: 33)_S56A (antibody, V domains shown)
VH: B13 VH
VL: DIVLTQSPATLSVTPGDSVSLSCRASQSISNNLHWYQQTSHESPRLLITYASQSIAGIPSRFSGSGSGTDFTLSINSVETEDFGMYFCQQSNSWPLTFGAGTKLELKR
Kd [3]: 159 nM
koff [3]: 0.00653 s⁻¹
kon [3]: 41200 M⁻¹ s⁻¹
Kd [4]: 9.3 nM
koff [4]: 0.00107 s⁻¹
kon [4]: 116000 M⁻¹ s⁻¹
ELISA ratio [5]: 0 OD ratio

B15: Mu_02D09_VL (SEQ ID NO: 33)_Q27A (antibody, V domains shown)
VH: B13 VH
VL: B14 VL with Q27A, A56S
Kd [3]: 35 nM
koff [3]: 0.00441 s⁻¹
kon [3]: 126000 M⁻¹ s⁻¹
Kd [4]: 7.57 nM
koff [4]: 0.00109 s⁻¹
kon [4]: 144000 M⁻¹ s⁻¹
ELISA ratio [5]: 0.025 OD ratio

B16: Mu_02D09_VH (SEQ ID NO: 31)_Y32A (antibody, V domains shown)
VH: B13 VH with Y32A
VL: B14 VL with A56S
Kd [3]: 34.8 nM
koff [3]: 0.0246 s⁻¹
kon [3]: 707000 M⁻¹ s⁻¹
Kd [4]: 6.39 nM
koff [4]: 0.000765 s⁻¹
kon [4]: 120000 M⁻¹ s⁻¹
ELISA ratio [5]: 0.991 OD ratio

B20: Mu_19F07_VH (SEQ ID NO: 47)_F104A (antibody, V domains shown)
VH: EVKLVESEGGLVQPGSSMKLSCTASGFTFSDYYMAWVRQVPEKGLEWVANINYDGSSTYYLDSLKSRFIISRDNAKNILYLQMSSLKSEDTATYYCARGLTWDADVWGTGTTVTVSS
VL: DIVMTQSHKFMSPSVGDRVSITCKASQDVDTAVAWYQQKPGQSPKLLIYLASTRHTGVPDRFTGSGSGTDFTLTISNVQSEDLADYFCQQYSRFPLTFGAGTKLELKR
kon [4]: 144000 M⁻¹ s⁻¹
ELISA ratio [5]: 0.982 OD ratio

B25: Mu_19F07 (antibody, V domains shown)
VH: B20 VH with A104F
VL: DIVMTQSHKFMSPSVGDRVSITCKASQDVDTAVAWYQQKPGQSPKLLIYLASTRHTGVPDRFTGSGSGTDFTLTISNVQSEDLADYFCQQYSRFPLTFGAGTKLELK
Kd [1]: 0.951 nM
Kd [2]: 0.0207 nM

Continued by falling Kd [4], values first:

Kd [3]: 3.94 nM
koff [3]: 0.000256 s⁻¹
kon [3]: 65000 M⁻¹ s⁻¹
Kd [4]: 1.83 nM
koff [4]: 0.000468 s⁻¹
kon [4]: 255000 M⁻¹ s⁻¹
ELISA ratio [5]: 0.217 OD ratio
B11: Mu_10F07_VL (SEQ ID NO: 41)_T53A (antibody, V domains shown)
VH: B2 VH with A49T, I58F
VL: B3 VL with T53A, A96W

Kd [3]: 5.32 nM
koff [3]: 0.000219 s⁻¹
kon [3]: 41200 M⁻¹ s⁻¹
Kd [4]: 1.63 nM
koff [4]: 0.000282 s⁻¹
kon [4]: 172000 M⁻¹ s⁻¹
ELISA ratio [5]: 0.298 OD ratio
B9: Mu_10F07_VL (SEQ ID NO: 41)_T97A (antibody, V domains shown)
VH: B2 VH with A49T, I58F
VL: B3 VL with A96W, T97A

Kd [3]: 5.48 nM
koff [3]: 0.000222 s⁻¹
kon [3]: 40500 M⁻¹ s⁻¹
Kd [4]: 1.53 nM
koff [4]: 0.000274 s⁻¹
kon [4]: 179000 M⁻¹ s⁻¹
ELISA ratio [5]: 0.15 OD ratio
B8: Mu_10F07_VL (SEQ ID NO: 41)_L33A (antibody, V domains shown)
VH: B2 VH with A49T, I58F
VL: B3 VL with L33A, A96W

Kd [3]: 1.69 nM
koff [3]: 6.76e-05 s⁻¹
kon [3]: 40100 M⁻¹ s⁻¹
Kd [4]: 1.43 nM
koff [4]: 0.000247 s⁻¹
kon [4]: 173000 M⁻¹ s⁻¹
ELISA ratio [5]: 0.375 OD ratio
B7: Mu_10F07_VH (SEQ ID NO: 39)_Y107A (antibody, V domains shown)
VH: B2 VH with A49T, I58F, Y107A
VL: B3 VL with A96W

Kd [3]: 3.92 nM
koff [3]: 0.00356 s⁻¹
kon [3]: 908000 M⁻¹ s⁻¹
Kd [4]: 0.767 nM
koff [4]: 0.000872 s⁻¹
kon [4]: 1.14e+06 M⁻¹ s⁻¹
ELISA ratio [5]: 0.159 OD ratio
B17: Mu_02D09_VH (SEQ ID NO: 31)_D31A (antibody, V domains shown)
VH: B13 VH with D31A
VL: B14 VL with A56S

Kd [4]: 0.621 nM
koff [4]: 0.00167 s⁻¹
kon [4]: 2.68e+06 M⁻¹ s⁻¹
ELISA ratio [5]: 0.055 OD ratio
B10: Mu_09E09_VL (SEQ ID NO: 37)_L94A (antibody, V domains shown)
VH: B2 VH
VL: B3 VL with I2L, T30N, F71Y, H92N, M93T, L94A, A96W

Kd [4]: 0.407 nM
koff [4]: 0.000108 s⁻¹
kon [4]: 266000 M⁻¹ s⁻¹
ELISA ratio [5]: 1.06 OD ratio
B18: Mu_19F07_VH (SEQ ID NO: 47)_Y33A (antibody, V domains shown)
VH: B20 VH with Y33A, A104F
VL: B20 VL

Kd [4]: 0.4 nM
koff [4]: 0.000141 s⁻¹
kon [4]: 351000 M⁻¹ s⁻¹
ELISA ratio [5]: 0.74 OD ratio
B22: Mu_19F07_VH (SEQ ID NO: 47)_Y59A (antibody, V domains shown)
VH: B20 VH with Y59A, A104F
VL: B20 VL

Kd [4]: 0.0511 nM
koff [4]: 2.38e-06 s⁻¹
kon [4]: 46500 M⁻¹ s⁻¹
ELISA ratio [5]: 0.985 OD ratio
B23: Mu_19F07_VL (SEQ ID NO: 49)_Q89A (antibody, V domains shown)
VH: B20 VH with A104F
VL: B20 VL with Q89A

Kd [4]: 0.0143 nM
koff [4]: 5.86e-07 s⁻¹
kon [4]: 41100 M⁻¹ s⁻¹
ELISA ratio [5]: 1.11 OD ratio
B24: Mu_19F07_VL (SEQ ID NO: 49)_L50A (antibody, V domains shown)
VH: B20 VH with A104F
VL: B20 VL with L50A

Kd [4]: 0.00714 nM
koff [4]: 1.73e-06 s⁻¹
kon [4]: 242000 M⁻¹ s⁻¹
ELISA ratio [5]: 0 OD ratio
B5: Mu_10F07_VL (SEQ ID NO: 41)_Y50A (antibody, V domains shown)
VH: B2 VH with A49T, I58F
VL: B3 VL with Y50A, A96W

Kd [4]: 0.00536 nM
koff [4]: 9.05e-07 s⁻¹
kon [4]: 169000 M⁻¹ s⁻¹
ELISA ratio [5]: 0.821 OD ratio
B21: Mu_19F07_VL (SEQ ID NO: 49)_T53A (antibody, V domains shown)
VH: B20 VH with A104F
VL: B20 VL with T53A

Kd [4]: 0.0052 nM
koff [4]: 4.7e-07 s⁻¹
kon [4]: 90400 M⁻¹ s⁻¹
ELISA ratio [5]: 1.09 OD ratio
B26: Mu_19F07_VL (SEQ ID NO: 49)_F94A (antibody, V domains shown)
VH: B20 VH with A104F
VL: B20 VL with F94A

Kd [4]: 0.00048 nM
koff [4]: 1.31e-07 s⁻¹
kon [4]: 273000 M⁻¹ s⁻¹
ELISA ratio [5]: 1.08 OD ratio
B19: Mu_19F07_VL (SEQ ID NO: 49)_Q90A (antibody, V domains shown)
VH: B20 VH with A104F
VL: B20 VL with Q90A
